Source: publication PMC6637133, “SPRTN protease and checkpoint kinase 1 cross-activation loop safeguards DNA replication” (Nature Communications, 2019)

Biological target: T1, recombinant His6-tagged SPRTN (human, UniProt Q9H040 1-489)
T1 construct: SPRTN metalloprotease, human; The methods of this pull-down are not described; also called purified SPRTN; source: recombinant, purified in house from E. coli
T1 sequence (looked up): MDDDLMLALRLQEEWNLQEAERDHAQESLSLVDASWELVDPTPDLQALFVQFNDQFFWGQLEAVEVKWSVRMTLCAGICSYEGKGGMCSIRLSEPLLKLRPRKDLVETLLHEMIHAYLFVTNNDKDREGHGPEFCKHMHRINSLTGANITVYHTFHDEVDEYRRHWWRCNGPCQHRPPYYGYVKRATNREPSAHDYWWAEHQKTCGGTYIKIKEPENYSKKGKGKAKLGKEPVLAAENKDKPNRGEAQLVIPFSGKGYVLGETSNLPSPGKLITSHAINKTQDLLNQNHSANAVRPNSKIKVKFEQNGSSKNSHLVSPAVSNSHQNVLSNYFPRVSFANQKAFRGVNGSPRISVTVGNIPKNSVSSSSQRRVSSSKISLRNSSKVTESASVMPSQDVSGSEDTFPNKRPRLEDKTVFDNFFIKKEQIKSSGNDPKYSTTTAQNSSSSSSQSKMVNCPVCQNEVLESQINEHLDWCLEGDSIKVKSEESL
Experiment: pull-down; recombinant His6-tagged SPRTN held on Ni-NTA beads, purified CHK1 co-precipitated; immunoblot
Details: both partners purified

B1: Purified CHK1 (enzyme, human, UniProt O14757 1-476, looked up)
chain: MAVPFVEDWDLVQTLGEGAYGEVQLAVNRVTEEAVAVKIVDMKRAVDCPENIKKEICINKMLNHENVVKFYGHRREGNIQYLFLEYCSGGELFDRIEPDIGMPEPDAQRFFHQLMAGVVYLHGIGITHRDIKPENLLLDERDNLKISDFGLATVFRYNNRERLLNKMCGTLPYVAPELLKRREFHAEPVDVWSCGIVLTAMLAGELPWDQPSDSCQEYSDWKEKKTYLNPWKKIDSAPLALLHKILVENPSARITIPDIKKDRWYNKPLKKGAKRPRVTSGGVSESPSGFSKHIQSNLDFSPVNSASSEENVKYSSSQPEPRTGLSLWDTSPSYIDKLVQGISFSQPTCPDHMLLNSQLLGTPGSSQNPWQRLVKRMTRFFTKLDADKSYQCLKETCEKLGYQWKKSCMNQVTISTTDRRNNKLIFKVNLLEMDDKILVDFRLSKGDGLEFKRHFLKIKGKLIDIVSSQKIWLPAT
notes: checkpoint kinase 1 (CHK1), human
Q: Does B1 bind?
A: Result: binds
